One experiment deals with β2-microglobulin (UniProt P61769 21-119). The experiment is described as follows: cell-based or functional assay.
Experiment [1] has as its target T1, Porcine Citrate synthase (porcine, UniProt P00889 28-464).
T1 construct: also called CS
T1 sequence (looked up): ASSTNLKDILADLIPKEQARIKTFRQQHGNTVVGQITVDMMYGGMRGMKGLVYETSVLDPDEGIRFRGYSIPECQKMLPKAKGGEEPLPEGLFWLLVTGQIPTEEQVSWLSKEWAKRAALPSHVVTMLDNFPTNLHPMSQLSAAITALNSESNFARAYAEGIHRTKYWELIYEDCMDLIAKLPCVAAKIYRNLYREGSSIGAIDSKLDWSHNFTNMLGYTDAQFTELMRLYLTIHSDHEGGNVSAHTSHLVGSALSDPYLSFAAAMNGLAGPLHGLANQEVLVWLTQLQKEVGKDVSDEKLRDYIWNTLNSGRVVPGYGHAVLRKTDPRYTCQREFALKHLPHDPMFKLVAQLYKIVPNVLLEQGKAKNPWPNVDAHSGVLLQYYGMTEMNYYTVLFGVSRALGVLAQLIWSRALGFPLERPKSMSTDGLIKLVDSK
The experiment is described as follows: protein pin array ELISA, A450; listed as peak peptide with unheated and pre-heated target. Background: ELISA stands for enzyme-linked immunosorbent assay.

Experiment [2] concerns the target T2, Human γD crystallin (human, UniProt P07320 2-174, limits assumed).
T2 construct: Used unheated (23° C) and pre-heated (45° C, 15 min)
T2 sequence (looked up): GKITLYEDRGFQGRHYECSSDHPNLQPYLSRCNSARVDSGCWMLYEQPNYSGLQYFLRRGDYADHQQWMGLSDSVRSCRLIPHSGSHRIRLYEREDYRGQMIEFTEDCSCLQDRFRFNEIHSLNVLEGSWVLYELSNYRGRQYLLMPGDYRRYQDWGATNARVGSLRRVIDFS
The experiment is described as above.

In the next experiment the target is transthyretin (UniProt P02766 21-147). The experiment is described as follows: cell-based or functional assay.
The target of a further experiment is beta amyloid (UniProt P05067 672-713, limits assumed). The experiment is described as follows: cell-based or functional assay.
Experiment [3] has as its target T2, Human γD crystallin. Put plainly: cell-based or functional assay.
The target of a further experiment is Amyloid-beta (1-42) (UniProt P05067). Put plainly: cell-based or functional assay.
The target in the next experiment is Bovine βH crystallin (bovine). The experiment is described as follows: cell-based or functional assay.
Experiment [4] addresses Equine Alcohol dehydrogenase (equine, UniProt P00327 2-375). The experiment is described as follows: cell-based or functional assay.
The target of experiment [5] is T1, Porcine Citrate synthase. The experiment is described as follows: protein pin array.

No end group written: not given here.

Sequence of β2-microglobulin (P61769 21-119 limits assumed): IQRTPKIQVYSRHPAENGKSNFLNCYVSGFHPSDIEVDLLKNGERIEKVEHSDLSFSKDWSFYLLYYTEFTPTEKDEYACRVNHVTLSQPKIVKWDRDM
Sequence of Equine Alcohol dehydrogenase (P00327 2-375 limits assumed): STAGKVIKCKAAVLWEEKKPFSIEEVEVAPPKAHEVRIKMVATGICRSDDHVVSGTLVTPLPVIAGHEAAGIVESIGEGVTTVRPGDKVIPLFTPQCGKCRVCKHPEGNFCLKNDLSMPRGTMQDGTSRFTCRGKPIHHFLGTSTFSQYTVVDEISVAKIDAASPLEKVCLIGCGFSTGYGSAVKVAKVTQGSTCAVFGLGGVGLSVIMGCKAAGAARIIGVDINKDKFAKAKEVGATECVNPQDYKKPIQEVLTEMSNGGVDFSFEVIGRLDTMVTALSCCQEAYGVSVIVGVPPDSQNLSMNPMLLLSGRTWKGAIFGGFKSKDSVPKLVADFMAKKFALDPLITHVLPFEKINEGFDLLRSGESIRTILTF

As for EERQ, the “β2m fibrillation, ThT fluorescence, 1:1 peptide:β2m (29 µM)” value (“β2m fibrillation, ThT fluorescence” for short) in the experiment with β2-microglobulin is around 100 % inhibition.

B1: FPFHSPSR (peptide)
peptide: FPFHSPSR
notes: pin-immobilised 8-mer of human αB crystallin; also called peptide 8
Regarding B1, the binding result with Porcine Citrate synthase [1] is listed as “binds”.

B2: DQFFGEHL (peptide)
peptide: DQFFGEHL
notes: pin-immobilised 8-mer of human αB crystallin; also called peptide 13
With B2, the binding result in the experiment with Human γD crystallin [2] is on record as “binds”.

B3: LTVNGPRK (peptide)
peptide: LTVNGPRK
notes: pin-immobilised 8-mer of human αB crystallin; also called peptide 72
With B3, the binding result in the experiment with Porcine Citrate synthase [1] is “binds”.

As to EERQDE, the “TTR fibrillation, ThT fluorescence, 1:1 peptide:TTR (16 µM)” value (“TTR fibrillation, ThT fluorescence” for short) with transthyretin was around 100 % inhibition. Also, the “β2m fibrillation, ThT fluorescence” value with β2-microglobulin was around 100 % inhibition.

B4: HGFISREF (peptide)
peptide: HGFISREF
notes: pin-immobilised 8-mer of human αB crystallin; also called peptide 56
With B4, the binding result with Human γD crystallin [2] is “binds”.

As to LTITSSLSSDGV, in the experiment with beta amyloid, the “Δfluorescence (Aβ), Thioflavin T, 72 h at 50° C (no chaperone: 1,324,974,048)” value (“Δfluorescence … (no chaperone: 1,324,974,048)” for short) was determined as 3.52e+08. For the same molecule, the “Δfluorescence (γD crystallin), Thioflavin T, 72 h at 50° C (no chaperone: 888,803,840)” value (“Δfluorescence … (no chaperone: 888,803,840)” below) with Human γD crystallin [3] is 6.75e+08.

B5: RTIPITRE (peptide)
peptide: RTIPITRE
notes: pin-immobilised 8-mer of human αB crystallin; also called peptide 79
On to B5, for which, in the experiment with Porcine Citrate synthase [1], the binding result is listed as “binds”.

B6: SFLRAPSW (peptide)
peptide: SFLRAPSW
notes: pin-immobilised 8-mer of human αB crystallin
As for B6, in the experiment with Human γD crystallin [2], the binding result is “binds”.

B7: LTITSSLS (peptide)
peptide: LTITSSLS
modifications: also: covalently bound to polyethylene pin
notes: pin-immobilised 8-mer of human αB crystallin; also called β8
Regarding B7, the binding result with Human γD crystallin [2] and in the experiment with Porcine Citrate synthase [1] was “binds” each time.

B8: FSVNLDVK (peptide)
peptide: FSVNLDVK
modifications: also: covalently bound to polyethylene pin
notes: pin-immobilised 8-mer of human αB crystallin; also called β3
Regarding B8, the binding result in the experiment with Human γD crystallin [2] and with Porcine Citrate synthase [1] was “binds” throughout.

Take ERTIPITRE: the “Δfluorescence … (no chaperone: 1,324,974,048)” value with beta amyloid was determined as 5.77e+08. For the same molecule, the “Δfluorescence … (no chaperone: 888,803,840)” value with Human γD crystallin [3] was 6.11e+08.

In the case of HGKHEERQDE, the “pH induced aggregation of amyloid-beta at pH 5.2, light scattering 360 nm (amyloid-beta alone = 100%)” value with Amyloid-beta (1-42) was 30 % aggregation. Moreover, the “Δfluorescence … (no chaperone: 1,324,974,048)” value with beta amyloid amounted to 7.96e+08. In the experiment with Human γD crystallin [3], the “Δfluorescence … (no chaperone: 888,803,840)” value amounted to 7.34e+08.

B9: EFHRKYRI (peptide)
peptide: EFHRKYRI
notes: as for B6
For B9, in the experiment with Human γD crystallin [2], the binding result is listed as “binds”.

Turning to RQDE, the “β2m fibrillation, ThT fluorescence” value in the experiment with β2-microglobulin is around 100 % inhibition.

B10: FISREFHR (peptide)
peptide: FISREFHR
notes: pin-immobilised 8-mer of human αB crystallin; also called peptide 57
B10: the binding result with Porcine Citrate synthase [1] is listed as “binds”.

B11: SLSPFYLR (peptide)
peptide: SLSPFYLR
notes: pin-immobilised 8-mer of human αB crystallin; also called peptide 22
As to B11, the binding result in the experiment with Human γD crystallin [2] and in the experiment with Porcine Citrate synthase [1] was “binds” in each case.

As for HEER, the “TTR fibrillation, ThT fluorescence” value in the experiment with transthyretin is around 100 % inhibition.

B12: WIRRPFFP (peptide)
peptide: WIRRPFFP
notes: pin-immobilised 8-mer of human αB crystallin; also called peptide 5
Regarding B12, the binding result in the experiment with Human γD crystallin [2] and with Porcine Citrate synthase [1] was “binds” in each case.

As for STSLSPFYLRPPSFLRAP, in the experiment with beta amyloid, the “Δfluorescence … (no chaperone: 1,324,974,048)” value was 4.78e+08. Further, in the experiment with Human γD crystallin [3], the “Δfluorescence … (no chaperone: 888,803,840)” value was 6.06e+08.

B13: FYLRPPSF (peptide)
peptide: FYLRPPSF
notes: pin-immobilised 8-mer of human αB crystallin; also called peptide 24
Turning to B13, the binding result in the experiment with Human γD crystallin [2] and in the experiment with Porcine Citrate synthase [1] was “binds” throughout.

B14: LRAPSWFD (peptide)
peptide: LRAPSWFD
notes: pin-immobilised 8-mer of human αB crystallin; also called peptide 28
As to B14, the binding result in the experiment with Porcine Citrate synthase [1] is “binds”.

Regarding DRFSVNLDVKHFS, the “protection against thermal aggregation at 50° C, light scattering 340 nm, 50:1 peptide:target” value (with Bovine βH crystallin; in experiment [4]) was around 30 % protection throughout. For the same molecule, the “pH induced aggregation of amyloid-beta at pH 5.2, light scattering 360 nm (amyloid-beta alone = 100%)” value with Amyloid-beta (1-42) worked out at 4 % aggregation. Besides, the “Δfluorescence … (no chaperone: 1,324,974,048)” value with beta amyloid was found to be 2.64e+08. The “Δfluorescence … (no chaperone: 888,803,840)” value with Human γD crystallin [3] was determined as 6.61e+08.

In the case of LTITSSLSDGV, the “protection against thermal aggregation at 50° C, light scattering 340 nm, 50:1 peptide:target” value (with Bovine βH crystallin; in experiment [4]) was around 30 % protection each time. In the experiment with Amyloid-beta (1-42), the “pH induced aggregation of amyloid-beta at pH 5.2, light scattering 360 nm (amyloid-beta alone = 100%)” value worked out at 15 % aggregation.

B15: GVLTVNGP (peptide)
peptide: GVLTVNGP
modifications: also: covalently bound to polyethylene pin
notes: pin-immobilised 8-mer of human αB crystallin; also called β9
Regarding B15, the binding result in the experiment with Porcine Citrate synthase [5] and with Human γD crystallin [2] was “binds” in each case.

B16: IAIHHPWI (peptide)
peptide: IAIHHPWI
notes: pin-immobilised 8-mer of human αB crystallin; also called peptide 2
In the case of B16, in the experiment with Human γD crystallin [2], the binding result is “binds”.

For HGKHEERQ, the “TTR fibrillation, ThT fluorescence” value with transthyretin is around 100 % inhibition.

B17: PFFPFHSP (peptide)
peptide: PFFPFHSP
notes: pin-immobilised 8-mer of human αB crystallin; also called 13 PFFPFHSP20
On to B17, for which the binding result with Human γD crystallin [2] is given as “binds”.

The values are drawn from patent publication US20070185028A1 (published 2007).
